Results from publication PMC5865148 (Nature Communications, 2018).

Assays:
Conditions in all cases: both partners purified
[1] = target: T1, soluble human BAFF (aa 134-285) L224A (human, UniProt Q9Y275 134-285, L224A); assay: SPR; about 1000 RU of belimumab Fab immobilised on a CM-5 chip by amine coupling; BAFF wild type or mutant flowed at 2 to 250 nM; 20 mM sodium citrate pH 5.6, 200 mM NaCl; 25 °C; BIAcore T100; sensorgrams locally fitted; in duplicate
T1 construct: also called BAFF L224A; source: E. coli BL21 (DE3), purified as described for wild-type BAFF; not shown: His6, N-terminal, cleaved

[2] = target: T2, soluble human BAFF (aa 134-285) E266A (human, UniProt Q9Y275 134-285, E266A); assay: as above
T2 construct: also called BAFF E266A; source: E. coli BL21 (DE3), purified as described for wild-type BAFF; not shown: His6, N-terminal, cleaved

[3] = target: T3, soluble human BAFF (aa 134-285) N242A (human, UniProt Q9Y275 134-285, N242A); assay: as above
T3 construct: also called BAFF N242A; source: E. coli BL21 (DE3), purified as described for wild-type BAFF; not shown: His6, N-terminal, cleaved

[4] = target: T4, soluble human BAFF (aa 134-285) Y163A (human, UniProt Q9Y275 134-285, Y163A); assay: as above
T4 construct: also called BAFF Y163A; source: E. coli BL21 (DE3), purified as described for wild-type BAFF; not shown: His6, N-terminal, cleaved

[5] = target: T5, soluble human BAFF (aa 134-285) I233A (human, UniProt Q9Y275 134-285, I233A); assay: as above
T5 construct: also called BAFF I233A; source: E. coli BL21 (DE3), purified as described for wild-type BAFF; not shown: His6, N-terminal, cleaved

[6] = target: T6, soluble human BAFF (aa 134-285) R265A (human, UniProt Q9Y275 134-285, R265A); assay: as above
T6 construct: also called BAFF R265A; source: E. coli BL21 (DE3), purified as described for wild-type BAFF; not shown: His6, N-terminal, cleaved

[7] = target: T7, soluble human BAFF (aa 134-285) D222A (human, UniProt Q9Y275 134-285, D222A); assay: as above
T7 construct: also called BAFF D222A; source: E. coli BL21 (DE3), purified as described for wild-type BAFF; not shown: His6, N-terminal, cleaved

[8] = target: T8, soluble human BAFF (aa 134-285) R231A (human, UniProt Q9Y275 134-285, R231A); assay: as above
T8 construct: also called BAFF R231A; source: E. coli BL21 (DE3), purified as described for wild-type BAFF; not shown: His6, N-terminal, cleaved

[9] = target: T9, soluble human BAFF (aa 134-285) L240A (human, UniProt Q9Y275 134-285, L240A); assay: as above
T9 construct: also called BAFF L240A; source: E. coli BL21 (DE3), purified as described for wild-type BAFF; not shown: His6, N-terminal, cleaved

[10] = target: T10, soluble human BAFF (aa 134-285) Y206A (human, UniProt Q9Y275 134-285, Y206A); assay: as above
T10 construct: also called BAFF Y206A; source: E. coli BL21 (DE3), purified as described for wild-type BAFF; not shown: His6, N-terminal, cleaved

[11] = target: T11, soluble form of human BAFF (aa 134–285) (human, UniProt Q9Y275); assay: SEC; analytical gel filtration, Superdex 200 Increase 10/300 GL, 20 mM HEPES pH 7.0, 200 mM NaCl; BAFF alone, Fab alone, and BAFF incubated 1 h with an excess of Fab
T11 construct: Cloned in pET-28a; On gel filtration it runs as trimer and as 60-mer (20 trimers); the trimer fractions were collected; also called BLyS; source: E. coli BL21 (DE3), purified (HisTrap, thrombin cleavage, gel filtration; trimer fractions collected); not shown: His6, N-terminal, cleaved

B1: belimumab Fab (Fab, V domains shown)
VH: QVQLQQSGAEVKKPGSSVRVSCKASGGTFNNNAINWVRQAPGQGLEWMGGIIPMFGTAKYSQNFQGRVAITADESTGTASMELSSLRSEDTAVYYCARSRDLLLFPHHALSPWGRGTMVTVSS
VL: SSELTQDPAVSVALGQTVRVTCQGDSLRSYYASWYQQKPGQAPVLVIYGKNNRPSGIPDRFSGSSSGNTASLTITGAQAEDEADYYCSSRDSSGNHWVFGGGTELTVLG
notes: followed by HHHHHH (the tag); Fab of a fully human IgG1 lambda antibody; also called belimumab Fab fragment; Benlysta Fab; source: E. coli Top10F, periplasmic expression, purified (HisTrap, gel filtration)
**Q.** B1 was tested. Which Kd [1] did it give?
**A.** 7.77 nM

**Q.** And the koff [1]?
**A.** 0.00119 s⁻¹

**Q.** And the kon [1]?
**A.** 153000 M⁻¹ s⁻¹

**Q.** What about the Kd [2] of the same binder?
**A.** 2.34 nM

**Q.** And the koff [2]?
**A.** 0.000245 s⁻¹

**Q.** And the kon [2]?
**A.** 105000 M⁻¹ s⁻¹

**Q.** And the Kd [3]?
**A.** 1.22 nM

**Q.** What about the koff [3] of the same binder?
**A.** 0.000167 s⁻¹

**Q.** What about the kon [3] of the same binder?
**A.** 137000 M⁻¹ s⁻¹

**Q.** What about the Kd [4] of the same binder?
**A.** 1.45 nM

**Q.** What about the koff [4] of the same binder?
**A.** 0.000137 s⁻¹

**Q.** And the kon [4]?
**A.** 94400 M⁻¹ s⁻¹

**Q.** What about the Kd [5] of the same binder?
**A.** 2.64 nM

**Q.** And the koff [5]?
**A.** 0.000328 s⁻¹

**Q.** And the kon [5]?
**A.** 124000 M⁻¹ s⁻¹

**Q.** What about the Kd [6] of the same binder?
**A.** 3.79 nM

**Q.** What about the koff [6] of the same binder?
**A.** 5.59e-05 s⁻¹

**Q.** What about the kon [6] of the same binder?
**A.** 14800 M⁻¹ s⁻¹

**Q.** What about the Kd [7] of the same binder?
**A.** 4.34 nM

**Q.** What about the koff [7] of the same binder?
**A.** 0.000357 s⁻¹

**Q.** And the kon [7]?
**A.** 82200 M⁻¹ s⁻¹

**Q.** And the Kd [8]?
**A.** 2.85 nM

**Q.** And the koff [8]?
**A.** 0.000128 s⁻¹

**Q.** What about the kon [8] of the same binder?
**A.** 45000 M⁻¹ s⁻¹

**Q.** And the Kd [9]?
**A.** 1.45 nM

**Q.** What about the koff [9] of the same binder?
**A.** 0.000145 s⁻¹

**Q.** What about the kon [9] of the same binder?
**A.** 101000 M⁻¹ s⁻¹

**Q.** What about the Kd [10] of the same binder?
**A.** 14.1 nM

**Q.** What about the koff [10] of the same binder?
**A.** 0.00783 s⁻¹

**Q.** What about the kon [10] of the same binder?
**A.** 556000 M⁻¹ s⁻¹

B2: belimumab Fab (Fab, V domains shown)
VH: QVQLQQSGAEVKKPGSSVRVSCKASGGTFNNNAINWVRQAPGQGLEWMGGIIPMFGTAKYSQNFQGRVAITADESTGTASMELSSLRSEDTAVYYCARSRDLLLFPHHALSPWGRGTMVTVSS
VL: SSELTQDPAVSVALGQTVRVTCQGDSLRSYYASWYQQKPGQAPVLVIYGKNNRPSGIPDRFSGSSSGNTASLTITGAQAEDEADYYCSSRDSSGNHWVFGGGTELTVL
notes: heavy chain of the Fab of belimumab (fully human IgG1 lambda); in the deposited structures PDB 5Y9J and 5Y9K; lambda light chain of belimumab; also called Benlysta; belimumab Fab fragment; source: E. coli Top10F, periplasmic expression, purified (HisTrap, gel filtration)
**Q.** For B2, which “stoichiometry N” value [11] is on record?
**A.** 1 BAFF protomer per Fab (printed 3:3)
